Patent publication US20240002820A1

Biological target: Uracil DNA glycosylase (UNG), endogenous in HuH-7 and U-2OS cells (UniProt P13051)
Test: cell-based or functional assay

Sequence of UniProt P13051 (P13051 whole entry): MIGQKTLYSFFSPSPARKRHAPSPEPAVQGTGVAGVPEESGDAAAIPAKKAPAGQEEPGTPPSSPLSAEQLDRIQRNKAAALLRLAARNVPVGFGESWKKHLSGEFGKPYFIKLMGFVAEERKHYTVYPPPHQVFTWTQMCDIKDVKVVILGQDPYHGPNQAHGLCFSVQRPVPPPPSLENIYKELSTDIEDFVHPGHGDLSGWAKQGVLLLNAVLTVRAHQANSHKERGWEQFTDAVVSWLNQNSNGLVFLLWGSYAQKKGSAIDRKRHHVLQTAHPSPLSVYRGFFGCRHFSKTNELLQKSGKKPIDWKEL

Uracil Glycosylase Inhibitor (UGI), overexpressed from plasmid pCDNA3.1-UGI (from UniProt P14739 1-84)
Fold change relative to GFP in % of edited reads, C-to-A/G or indel, HuH-7 cells, BC22 + UGI overexpression (fold change relative to GFP): -4.53
Fold change relative to GFP in % of edited reads, C-to-A/G or indel, HuH-7 cells, BC22 + UGI overexpression + siRNA against UNG (fold change relative to GFP): -4.76
Fold change relative to GFP in % of edited reads, C-to-A/G or indel, HuH-7 cells, BC27 + UGI overexpression (fold change relative to GFP): -9.3
Fold change relative to GFP in % of edited reads, C-to-A/G or indel, HuH-7 cells, BC27 + UGI overexpression + siRNA against UNG (fold change relative to GFP): -10.8
Fold change relative to GFP in % of edited reads, C-to-A/G or indel, U-2OS cells, BC22 + UGI overexpression (fold change relative to GFP): -2.97
Fold change relative to GFP in % of edited reads, C-to-A/G or indel, U-2OS cells, BC22 + UGI overexpression + siRNA against UNG (fold change relative to GFP): -3.46
Fold change relative to GFP in % of edited reads, C-to-A/G or indel, U-2OS cells, BC27 + UGI overexpression (fold change relative to GFP): -3.09
Fold change relative to GFP in % of edited reads, C-to-A/G or indel, U-2OS cells, BC27 + UGI overexpression + siRNA against UNG (fold change relative to GFP): -3.48
Fold change relative to GFP in % of edited reads, C-to-T, HuH-7 cells, BC22 + UGI overexpression (fold change relative to GFP): 1.56
Fold change relative to GFP in % of edited reads, C-to-T, HuH-7 cells, BC22 + UGI overexpression + siRNA against UNG (fold change relative to GFP): 1.57
Fold change relative to GFP in % of edited reads, C-to-T, HuH-7 cells, BC27 + UGI overexpression (fold change relative to GFP): 2.13
Fold change relative to GFP in % of edited reads, C-to-T, HuH-7 cells, BC27 + UGI overexpression + siRNA against UNG (fold change relative to GFP): 2.15
Fold change relative to GFP in % of edited reads, C-to-T, U-2OS cells, BC22 + UGI overexpression (fold change relative to GFP): 1.21
Fold change relative to GFP in % of edited reads, C-to-T, U-2OS cells, BC22 + UGI overexpression + siRNA against UNG (fold change relative to GFP): 1.22
Fold change relative to GFP in % of edited reads, C-to-T, U-2OS cells, BC27 + UGI overexpression (fold change relative to GFP): 1.92
Fold change relative to GFP in % of edited reads, C-to-T, U-2OS cells, BC27 + UGI overexpression + siRNA against UNG (fold change relative to GFP): 1.97
Share of total edits that are C-to-T-only edits, HuH-7 cells, BC22 or BC27 + UGI overexpression: 94%
